Experiments:
AncSZ = assay: phosphorylation enrichment, bacterial display (enrichment ratio); higher = better substrate or ligand; peptides without Tyr show the background
EPHB1 = EPHB1 (UniProt P54762); assay: as above
EPHB2 = EPHB2 (UniProt P29323); assay: as above
FGFR1 = FGFR1 (UniProt P11362); assay: as above
FGFR3 = FGFR3 (UniProt P22607); assay: as above
Fer (mouse) = assay: as above
Fes = Fes (UniProt P07332); assay: as above
Fyn = Fyn (UniProt P06241); assay: as above
Hck = Hck (UniProt P08631); assay: as above
Jak2 = Jak2 (UniProt O60674); assay: as above
MERTK = MERTK (UniProt Q12866); assay: as above
c-Abl (mouse) = assay: as above
c-Src = assay: as above
Grb2 SH2 = Grb2 SH2 (UniProt P62993); assay: SH2 binding enrichment of the phosphorylated peptide, bacterial display (enrichment ratio); higher = better substrate or ligand; peptides without Tyr show the background
SHP2-C SH2 = assay: as above
c-Src SH2 = assay: as above
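Wherever SH2 binding enrichment of the phosphorylated peptide, bacterial display is given: peptide library displayed on the E. coli surface as eCPX fusions, selected cells deep-sequenced, score is each peptide's frequency after selection divided by its frequency in the input.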
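Wherever phosphorylation enrichment, bacterial display is given: 11-residue human phosphosite peptides and single-mutation variants displayed on the E. coli surface, counted by deep sequencing, each peptide's frequency after selection divided by its frequency in the unselected input library; frequency after pTyr selection over input frequency; kinase dosed for 20-30% of maximal phosphorylation in three min.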

Chain of Jak2 (O60674 whole entry, looked up): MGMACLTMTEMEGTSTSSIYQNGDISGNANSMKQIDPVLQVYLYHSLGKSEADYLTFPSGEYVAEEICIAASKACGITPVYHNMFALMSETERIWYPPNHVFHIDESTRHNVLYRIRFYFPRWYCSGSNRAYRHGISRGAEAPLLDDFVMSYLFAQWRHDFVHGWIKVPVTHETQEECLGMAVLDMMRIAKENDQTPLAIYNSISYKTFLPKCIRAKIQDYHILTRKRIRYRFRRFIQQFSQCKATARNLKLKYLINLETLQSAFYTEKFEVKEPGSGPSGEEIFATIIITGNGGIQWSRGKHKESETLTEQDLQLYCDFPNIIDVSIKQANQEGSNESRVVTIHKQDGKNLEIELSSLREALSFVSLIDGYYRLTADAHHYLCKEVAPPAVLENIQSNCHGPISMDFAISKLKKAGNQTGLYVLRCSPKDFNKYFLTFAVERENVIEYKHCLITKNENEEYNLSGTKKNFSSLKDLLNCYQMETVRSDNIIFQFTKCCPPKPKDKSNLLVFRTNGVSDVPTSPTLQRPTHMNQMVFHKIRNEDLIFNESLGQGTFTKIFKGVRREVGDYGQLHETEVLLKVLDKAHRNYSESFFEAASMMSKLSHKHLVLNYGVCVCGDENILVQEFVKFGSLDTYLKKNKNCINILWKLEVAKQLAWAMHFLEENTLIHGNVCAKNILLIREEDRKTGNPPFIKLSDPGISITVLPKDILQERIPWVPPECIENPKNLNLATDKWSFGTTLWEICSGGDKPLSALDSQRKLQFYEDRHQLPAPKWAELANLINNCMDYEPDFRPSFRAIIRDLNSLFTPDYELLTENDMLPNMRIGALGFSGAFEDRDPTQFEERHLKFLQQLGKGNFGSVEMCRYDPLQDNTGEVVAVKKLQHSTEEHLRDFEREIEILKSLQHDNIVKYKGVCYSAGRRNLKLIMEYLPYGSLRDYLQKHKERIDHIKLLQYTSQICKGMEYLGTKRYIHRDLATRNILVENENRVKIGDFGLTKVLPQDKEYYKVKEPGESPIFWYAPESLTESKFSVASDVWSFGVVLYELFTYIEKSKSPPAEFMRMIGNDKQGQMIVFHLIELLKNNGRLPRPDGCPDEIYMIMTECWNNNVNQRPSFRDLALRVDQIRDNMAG
Chain of Grb2 SH2 (P62993 whole entry, looked up): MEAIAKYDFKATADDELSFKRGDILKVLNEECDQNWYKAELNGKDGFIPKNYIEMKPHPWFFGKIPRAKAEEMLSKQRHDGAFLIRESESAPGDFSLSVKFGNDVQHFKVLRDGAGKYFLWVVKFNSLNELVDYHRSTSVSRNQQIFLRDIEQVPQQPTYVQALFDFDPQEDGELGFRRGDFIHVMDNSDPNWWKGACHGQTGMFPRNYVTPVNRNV
Chain of EPHB2 (P29323 whole entry, looked up): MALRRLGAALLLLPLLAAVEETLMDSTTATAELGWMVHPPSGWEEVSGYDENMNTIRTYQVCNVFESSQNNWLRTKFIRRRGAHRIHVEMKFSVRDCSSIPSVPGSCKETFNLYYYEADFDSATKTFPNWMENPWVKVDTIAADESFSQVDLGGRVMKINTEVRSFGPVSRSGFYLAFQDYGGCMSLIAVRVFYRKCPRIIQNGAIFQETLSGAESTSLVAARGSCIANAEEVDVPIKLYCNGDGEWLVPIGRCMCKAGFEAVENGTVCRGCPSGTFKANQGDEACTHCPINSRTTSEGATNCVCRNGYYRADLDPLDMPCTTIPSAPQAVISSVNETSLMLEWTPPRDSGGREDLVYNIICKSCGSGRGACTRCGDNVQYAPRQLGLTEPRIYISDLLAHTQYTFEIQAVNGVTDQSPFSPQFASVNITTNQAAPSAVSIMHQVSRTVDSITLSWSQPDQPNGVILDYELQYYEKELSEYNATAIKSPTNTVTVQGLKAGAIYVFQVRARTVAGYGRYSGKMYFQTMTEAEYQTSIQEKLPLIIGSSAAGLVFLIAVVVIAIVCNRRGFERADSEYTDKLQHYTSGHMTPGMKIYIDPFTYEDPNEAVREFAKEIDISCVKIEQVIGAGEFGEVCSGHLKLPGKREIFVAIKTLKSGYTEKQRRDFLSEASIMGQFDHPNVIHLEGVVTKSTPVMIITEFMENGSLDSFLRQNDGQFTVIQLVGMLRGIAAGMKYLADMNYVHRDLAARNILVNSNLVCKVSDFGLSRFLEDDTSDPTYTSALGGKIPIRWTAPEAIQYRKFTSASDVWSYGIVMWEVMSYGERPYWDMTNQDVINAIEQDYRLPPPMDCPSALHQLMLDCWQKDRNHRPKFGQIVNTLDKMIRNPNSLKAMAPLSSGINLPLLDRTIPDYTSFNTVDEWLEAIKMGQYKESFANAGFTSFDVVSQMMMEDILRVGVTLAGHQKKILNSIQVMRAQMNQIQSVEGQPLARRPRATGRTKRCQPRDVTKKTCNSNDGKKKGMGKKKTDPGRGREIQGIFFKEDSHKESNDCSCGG
Chain of FGFR3 (P22607 whole entry, looked up): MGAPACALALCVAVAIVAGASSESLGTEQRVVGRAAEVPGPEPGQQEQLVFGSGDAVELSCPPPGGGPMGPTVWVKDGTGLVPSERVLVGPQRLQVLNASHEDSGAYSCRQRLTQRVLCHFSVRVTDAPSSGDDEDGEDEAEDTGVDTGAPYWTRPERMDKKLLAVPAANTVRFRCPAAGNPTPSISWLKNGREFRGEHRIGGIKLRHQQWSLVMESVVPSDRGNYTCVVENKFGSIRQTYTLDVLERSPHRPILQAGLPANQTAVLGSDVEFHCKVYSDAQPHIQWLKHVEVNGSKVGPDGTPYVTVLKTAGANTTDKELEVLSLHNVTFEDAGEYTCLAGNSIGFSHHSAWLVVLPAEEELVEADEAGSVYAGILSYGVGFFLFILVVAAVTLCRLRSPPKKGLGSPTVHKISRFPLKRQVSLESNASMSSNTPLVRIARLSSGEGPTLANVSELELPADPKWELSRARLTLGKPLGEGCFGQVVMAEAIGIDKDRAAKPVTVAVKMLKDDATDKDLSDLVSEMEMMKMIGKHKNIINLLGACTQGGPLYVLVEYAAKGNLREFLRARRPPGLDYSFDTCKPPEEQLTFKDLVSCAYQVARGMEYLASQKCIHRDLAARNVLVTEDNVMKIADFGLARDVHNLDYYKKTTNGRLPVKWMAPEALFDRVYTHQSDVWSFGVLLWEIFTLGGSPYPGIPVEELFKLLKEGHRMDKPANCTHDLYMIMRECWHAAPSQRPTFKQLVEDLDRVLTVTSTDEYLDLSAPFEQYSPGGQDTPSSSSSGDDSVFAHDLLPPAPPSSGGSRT
Chain of EPHB1 (P54762 whole entry, looked up): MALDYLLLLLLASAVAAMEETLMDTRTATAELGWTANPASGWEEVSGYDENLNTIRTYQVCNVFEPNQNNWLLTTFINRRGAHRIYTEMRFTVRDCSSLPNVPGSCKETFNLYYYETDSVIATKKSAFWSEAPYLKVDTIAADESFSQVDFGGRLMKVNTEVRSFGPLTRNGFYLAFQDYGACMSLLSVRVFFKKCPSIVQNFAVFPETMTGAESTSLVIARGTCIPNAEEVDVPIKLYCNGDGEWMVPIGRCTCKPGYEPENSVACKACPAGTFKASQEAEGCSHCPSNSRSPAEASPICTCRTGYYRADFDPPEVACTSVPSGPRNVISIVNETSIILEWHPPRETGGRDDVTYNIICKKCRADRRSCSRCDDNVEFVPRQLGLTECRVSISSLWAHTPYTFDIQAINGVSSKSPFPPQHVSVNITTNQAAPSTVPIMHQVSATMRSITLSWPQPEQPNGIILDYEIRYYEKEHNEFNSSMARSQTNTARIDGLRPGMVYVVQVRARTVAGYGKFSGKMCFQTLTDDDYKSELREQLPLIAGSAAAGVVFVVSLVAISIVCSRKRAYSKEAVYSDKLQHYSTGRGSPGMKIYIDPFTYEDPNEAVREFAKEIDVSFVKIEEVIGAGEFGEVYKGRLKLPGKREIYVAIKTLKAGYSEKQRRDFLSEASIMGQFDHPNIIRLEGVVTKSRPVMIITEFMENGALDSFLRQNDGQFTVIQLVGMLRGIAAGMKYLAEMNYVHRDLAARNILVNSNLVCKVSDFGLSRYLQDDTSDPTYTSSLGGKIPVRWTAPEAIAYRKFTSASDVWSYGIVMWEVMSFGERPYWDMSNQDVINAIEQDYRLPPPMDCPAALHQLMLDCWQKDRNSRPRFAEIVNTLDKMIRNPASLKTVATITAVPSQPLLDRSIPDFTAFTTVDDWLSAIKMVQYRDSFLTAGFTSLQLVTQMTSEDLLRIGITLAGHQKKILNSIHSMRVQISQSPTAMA
Chain of Fes (P07332 whole entry, looked up): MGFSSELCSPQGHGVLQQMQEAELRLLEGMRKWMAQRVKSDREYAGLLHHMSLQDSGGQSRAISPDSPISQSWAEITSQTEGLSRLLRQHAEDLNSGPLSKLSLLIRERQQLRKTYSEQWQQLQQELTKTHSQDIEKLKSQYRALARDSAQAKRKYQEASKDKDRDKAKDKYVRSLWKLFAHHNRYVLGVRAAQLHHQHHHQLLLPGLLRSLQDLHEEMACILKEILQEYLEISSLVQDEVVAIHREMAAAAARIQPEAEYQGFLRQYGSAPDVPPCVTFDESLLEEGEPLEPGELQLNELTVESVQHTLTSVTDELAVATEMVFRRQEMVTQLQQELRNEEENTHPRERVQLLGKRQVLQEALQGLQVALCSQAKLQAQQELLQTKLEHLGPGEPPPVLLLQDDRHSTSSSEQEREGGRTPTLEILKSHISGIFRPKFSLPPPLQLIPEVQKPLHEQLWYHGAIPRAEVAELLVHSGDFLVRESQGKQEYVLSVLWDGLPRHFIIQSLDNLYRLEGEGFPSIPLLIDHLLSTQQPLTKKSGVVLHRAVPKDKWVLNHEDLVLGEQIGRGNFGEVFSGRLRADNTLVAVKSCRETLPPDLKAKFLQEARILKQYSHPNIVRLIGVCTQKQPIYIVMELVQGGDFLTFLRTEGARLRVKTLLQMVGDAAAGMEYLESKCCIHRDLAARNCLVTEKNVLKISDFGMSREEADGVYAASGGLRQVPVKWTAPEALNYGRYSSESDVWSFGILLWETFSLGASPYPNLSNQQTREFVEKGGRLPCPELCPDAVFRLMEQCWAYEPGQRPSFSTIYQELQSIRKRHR

Row | Sequence | phosphorylation enrichment (AncSZ) | phosphorylation enrichment (EPHB1) | phosphorylation enrichment (EPHB2) | phosphorylation enrichment (FGFR1) | phosphorylation enrichment (FGFR3) | phosphorylation enrichment (Fer (mouse)) | phosphorylation enrichment (Fes) | phosphorylation enrichment (Fyn) | phosphorylation enrichment (Hck) | phosphorylation enrichment (Jak2) | phosphorylation enrichment (MERTK) | phosphorylation enrichment (c-Abl (mouse)) | phosphorylation enrichment (c-Src) | SH2 binding enrichment (Grb2 SH2) | SH2 binding enrichment (SHP2-C SH2) | SH2 binding enrichment (c-Src SH2)
1 | PKEQKYSFLQD [GH1_Y68_N73D] | 0.948 | 0.605 | 0.693 | 0.597 | 0.532 | 0.435 | 1.16 | 0.523 | 0.619 | 0.809 | 0.858 | 1.05 | 0.628 | 0.945 | 0.895 | 1.15
2 | DYYDLYGGEKL [PTPN11_Y66_F71L] | 3.2 | 7.36 | 8.09 | 16.6 | 14.1 | 1.32 | 1.5 | 5.27 | 5.89 | 3.12 | 3.9 | 0.871 | 5.5 | 0.812 | 0.935 | 0.709
3 | FAKSVYWENTL [NUP107_Y296_YF] | 0.899 | 0.554 | 0.531 | 0.506 | 0.752 | 0.418 | 1.32 | 0.768 | 0.857 | 0.987 | 0.588 | 0.638 | 0.802 | 1.08 | 0.887 | 1.15
4 | KIVATYRLCSE [DNAH3_Y1586] | 1.06 | 0.631 | 0.626 | 0.571 | 0.664 | 0.487 | 1.28 | 0.463 | 0.725 | 1.02 | 0.565 | 0.714 | 0.535 | 0.685 | 0.778 | 0.512
5 | LYVDVYGPSVP [NUBPL_Y109_D105Y] | 1.48 | 3.63 | 1.09 | 2.8 | 2.02 | 2.21 | 1.32 | 2.02 | 2.85 | 0.977 | 2.27 | 0.902 | 2.15 | 0.705 | 0.695 | 0.578
6 | NFCPGYNNFFN [USH2A_Y467_R464C_YF] | 0.733 | 0.393 | 0.43 | 0.415 | 0.524 | 0.455 | 0.79 | 0.434 | 0.426 | 0.775 | 0.458 | 0.577 | 0.719 | 2.15 | 0.889 | 1.05
7 | LGQRIYQFIRS [DYRK1B_Y271_Q275R_YF] | 1.3 | 9.19 | 2.54 | 1.39 | 1.21 | 5.51 | 1.19 | 1.86 | 6.17 | 0.887 | 6.97 | 0.98 | 2.83 | 1.38 | 1.07 | 2.21
8 | NWGKKYPTCNS [PTPRZ1_Y53] | 0.771 | 0.507 | 0.558 | 0.459 | 0.603 | 0.485 | 0.978 | 0.523 | 0.463 | 0.85 | 0.43 | 0.839 | 0.435 | 1.06 | 1.03 | 0.787
9 | QSHKVYFQHLL [POR_Y604_V605F] | 1.14 | 0.671 | 0.503 | 0.622 | 0.915 | 0.698 | 1.52 | 0.473 | 0.598 | 1.22 | 0.725 | 0.991 | 0.663 | 0.836 | 0.761 | 0.623
10 | RMETAYGPSVT [MXRA5_Y2717_E2716A] | 0.635 | 0.413 | 0.46 | 0.448 | 0.529 | 0.617 | 0.718 | 0.467 | 0.63 | 0.661 | 0.444 | 0.511 | 0.646 | 0.76 | 0.904 | 0.405
11 | YEDALYTVLHR [UNC13D_Y61] | 3.84 | 16.6 | 15.9 | 3.68 | 3.1 | 12.9 | 2.06 | 8.38 | 9.13 | 1.7 | 9.59 | 11.5 | 7.21 | 0.86 | 0.46 | 2.38
12 | VVRSLYEDLED [VHL_Y185_I180V] | 1.26 | 0.711 | 0.984 | 0.556 | 0.792 | 1.24 | 1.24 | 0.587 | 0.573 | 1.21 | 0.525 | 0.835 | 0.544 | 0.988 | 0.981 | 10.1
13 | KKLAEYGPQGR [CLCA1_Y147] | 0.428 | 0.376 | 0.366 | 0.364 | 0.361 | 0.316 | 0.519 | 0.408 | 0.36 | 0.441 | 0.379 | 0.473 | 0.358 | 0.901 | 0.631 | 0.546
14 | LNERHYGGLTD [PGAM2_Y92_G97D] | 1.18 | 1.1 | 0.83 | 0.977 | 1.12 | 0.7 | 0.663 | 0.975 | 1.08 | 0.457 | 0.629 | 0.605 | 0.515 | 0.98 | 0.773 | 0.528
15 | NNPAFYVLEGV [INPPL1_Y987_YF] | 0.956 | 0.5 | 0.581 | 0.653 | 0.612 | 0.42 | 1 | 0.699 | 0.485 | 0.87 | 0.554 | 0.616 | 0.638 | 0.768 | 0.693 | 0.682
16 | NPETCYQKLKK [TK2_Y190_R192K] | 0.906 | 0.583 | 0.451 | 0.444 | 0.774 | 0.509 | 1.07 | 0.428 | 0.583 | 0.921 | 0.386 | 0.765 | 0.425 | 0.829 | 0.814 | 0.783
17 | LKGQVYILVRE [ASS1_Y359_G362V] | 1.43 | 0.682 | 0.652 | 0.481 | 0.982 | 0.328 | 1.36 | 0.343 | 0.454 | 1.14 | 0.375 | 0.921 | 0.334 | 0.878 | 0.896 | 0.525

Row | Sequence | phosphorylation enrichment (AncSZ) | phosphorylation enrichment (EPHB1) | phosphorylation enrichment (EPHB2) | phosphorylation enrichment (FGFR1) | phosphorylation enrichment (FGFR3) | phosphorylation enrichment (Fer (mouse)) | phosphorylation enrichment (Fes) | phosphorylation enrichment (Fyn) | phosphorylation enrichment (Hck) | phosphorylation enrichment (Jak2) | phosphorylation enrichment (MERTK) | phosphorylation enrichment (c-Abl (mouse)) | phosphorylation enrichment (c-Src) | SH2 binding enrichment (Grb2 SH2) | SH2 binding enrichment (SHP2-C SH2) | SH2 binding enrichment (c-Src SH2)
18 | VATRWYRSPEP [CDKL5_Y177_L182P] | 0.638 | 0.55 | 0.537 | 0.482 | 0.523 | 0.379 | 0.719 | 0.525 | 0.431 | 0.565 | 0.421 | 0.397 | 0.394 | 0.796 | 0.629 | 0.422
19 | TLMNAYSSRCH [KIF11_Y231_S235C] | 1 | 0.602 | 0.553 | 0.492 | 0.637 | 0.535 | 0.836 | 0.571 | 0.496 | 0.776 | 0.448 | 0.738 | 0.471 | 0.943 | 0.726 | 0.581
20 | GEETDYTPVWC [UROD_Y30] | 1.62 | 0.587 | 0.791 | 0.655 | 0.92 | 1.02 | 1.43 | 0.535 | 0.556 | 1.04 | 0.468 | 0.785 | 0.552 | 0.864 | 0.748 | 0.687
21 | VLNKGYRMVVN [HINT1_Y94_G89V] | 0.557 | 0.362 | 0.343 | 0.392 | 0.396 | 0.311 | 0.539 | 0.383 | 0.368 | 0.433 | 0.339 | 0.361 | 0.326 | 0.707 | 0.538 | 0.424
22 | CTNIHYNFMCN [TP53_Y234_T231N_YF] | 0.8 | 0.436 | 0.597 | 0.554 | 0.714 | 0.481 | 0.974 | 0.456 | 0.426 | 0.693 | 0.423 | 0.655 | 0.562 | 1.62 | 1.62 | 2.21
23 | MLEVSYVDRNS [F10_Y384_P383S] | 0.651 | 0.48 | 0.528 | 0.441 | 0.519 | 0.439 | 0.758 | 0.375 | 0.437 | 0.876 | 0.37 | 0.554 | 0.466 | 0.67 | 0.609 | 0.355
24 | TLAHKYHGGGG [HBB_Y146_A141T] | 0.652 | 0.46 | 0.398 | 0.611 | 0.494 | 0.436 | 0.973 | 0.497 | 0.681 | 1.1 | 0.577 | 1.03 | 0.675 | 0.567 | 0.67 | 0.558
25 | LKYAIYFEARE [LAMA2_Y1258] | 2.42 | 1.59 | 1.4 | 0.938 | 1.64 | 0.822 | 2.41 | 1.21 | 1.67 | 3.01 | 0.907 | 1.94 | 1.49 | 0.907 | 0.793 | 0.449
26 | VEDHYYEGGIG [TKT_Y564] | 1.1 | 0.581 | 0.65 | 1.59 | 1.73 | 0.688 | 1.11 | 0.559 | 0.636 | 1.05 | 0.524 | 0.837 | 0.628 | 0.883 | 0.833 | 3.89
27 | IEDNKYTAREG [HCK_Y411_E410K] | 0.926 | 0.588 | 0.543 | 0.558 | 0.545 | 0.392 | 1.03 | 0.507 | 0.469 | 0.788 | 0.356 | 0.756 | 0.506 | 0.924 | 0.828 | 0.573
28 | TSKLNYLDPRI [TOP1_Y723] | 0.534 | 4.39 | 1.7 | 0.919 | 0.585 | 0.241 | 0.599 | 0.371 | 0.3 | 0.506 | 0.359 | 0.407 | 0.405 | 0.813 | 1.09 | 0.554
29 | RVLQLYGCSPS [ASTL_Y279_K277Q] | 1.69 | 1.3 | 1.71 | 1.06 | 1.26 | 1.15 | 1.72 | 1.54 | 2.33 | 1.48 | 0.576 | 1.38 | 1.38 | 0.853 | 0.727 | 0.493
30 | REEIKYMLWLS [OTC_Y55_G50R] | 1.23 | 0.697 | 0.992 | 0.961 | 1.4 | 0.955 | 1.58 | 0.661 | 0.786 | 1.15 | 0.734 | 0.944 | 0.474 | 0.642 | 0.775 | 0.502
31 | RIVEIYSRSLQ [GCH1_Y175_R178S] | 1.43 | 1.03 | 0.985 | 0.753 | 1.67 | 0.87 | 1.95 | 1.52 | 2.61 | 0.895 | 1.17 | 1.07 | 1.28 | 0.944 | 0.701 | 0.485
32 | VNKGGYFSVNL [C3orf33_Y164_S160N] | 0.832 | 0.553 | 0.411 | 0.599 | 0.603 | 0.395 | 1.05 | 0.456 | 0.411 | 1.23 | 0.412 | 0.688 | 0.398 | 0.648 | 0.725 | 1.4
33 | APQYTYTQGGQ [FLNA_Y1763_A1764T] | – | – | – | – | – | – | – | – | – | – | – | – | – | 1.54 | 0.799 | 1.84
34 | LPEVSYVKAID [GLRA1_Y307_K304E] | 0.207 | 0.095 | – | – | 0.1 | – | 0.205 | 0.28 | 0.203 | 0.44 | 0.07 | 0.132 | 0.126 | 0.862 | 0.783 | 0.437

From the supplement of paper PMC10065799, “High-throughput profiling of sequence recognition by tyrosine kinases and SH2 domains using bacterial peptide display” (eLife, 2023)
